Key:
HLA-A*02 = HLA-A*02 (human); test: UV peptide-exchange ELISA, yield grade
HLA-A*02:01 = HLA-A*02:01 (human); test: pMHC used for negative control stimulation

Binder	peptide exchange yield (HLA-A*02) [%]	binding result (HLA-A*02:01)
SLAPATPEV [SLAPATPEV (SEQ ID NO: 250)]	50 to 75	–
YMGEEKLIASV [YMGEEKLIASV (SEQ ID NO: 240)]	50 to 75	–
KIIDFLSAL [KIIDFLSAL (SEQ ID NO: 235)]	50 to 75	–
WLYGEDHQI [WLYGEDHQI (SEQ ID NO: 242)]	20 to 49	–
LLSPHNPAL [LLSPHNPAL (SEQ ID NO: 234)]	50 to 75	–
ALYEGYATV [ALYEGYATV (SEQ ID NO: 247)]	50 to 75	–
KMNESTRSV [KMNESTRSV (SEQ ID NO: 239)]	20 to 49	–
YLLPAIVHI [DDX5-001]	–	binds
STIAILNSV [STIAILNSV (SEQ ID NO: 236)]	50 to 75	–
ALAPHLDDA [ALAPHLDDA (SEQ ID NO: 237)]	50 to 75	–
ALAELIDNSL [ALAELIDNSL (SEQ ID NO: 253)]	50 to 75	–
ILLPRIIEA [ILLPRIIEA (SEQ ID NO: 259)]	50 to 75	–
LLSERFINV [LLSERFINV (SEQ ID NO: 258)]	≥ 75	–
RLMEICESL [RLMEICESL (SEQ ID NO: 252)]	50 to 75	–
YAIGLVMRL [YAIGLVMRL (SEQ ID NO: 266)]	50 to 75	–
KLFPQETLFL [KLFPQETLFL (SEQ ID NO: 264)]	50 to 75	–
GLYERPTAA [GLYERPTAA (SEQ ID NO: 238)]	20 to 49	–

Binder	peptide exchange yield (HLA-A*02) [%]	binding result (HLA-A*02:01)
SLLHFTENL [SLLHFTENL (SEQ ID NO: 255)]	50 to 75	–
VLLSEQGDVKL [VLLSEQGDVKL (SEQ ID NO: 263)]	20 to 49	–
GLYTDPCGV [GLYTDPCGV (SEQ ID NO: 257)]	≥ 75	–
FMADDIFSV [FMADDIFSV (SEQ ID NO: 243)]	50 to 75	–
FMVDKAIYL [FMVDKAIYL (SEQ ID NO: 262)]	50 to 75	–
ILLEKILSL [ILLEKILSL (SEQ ID NO: 260)]	50 to 75	–
KTIQQLETV [KTIQQLETV (SEQ ID NO: 241)]	20 to 49	–
SLGEEQFSV [SLGEEQFSV (SEQ ID NO: 256)]	20 to 49	–
SLLDLPLSL [SLLDLPLSL (SEQ ID NO: 245)]	≥ 75	–
QLQDRVYAL [QLQDRVYAL (SEQ ID NO: 261)]	50 to 75	–
KLQGKLPEL [KLQGKLPEL (SEQ ID NO: 254)]	20 to 49	–
GLCERLVSL [GLCERLVSL (SEQ ID NO: 249)]	≥ 75	–
NTCPYVHNI [NTCPYVHNI (SEQ ID NO: 265)]	50 to 75	–
YLLEKNRVV [YLLEKNRVV (SEQ ID NO: 244)]	20 to 49	–
YLDRFLAGV [YLDRFLAGV (SEQ ID NO: 248)]	≥ 75	–
ALSVLRLAL [ALSVLRLAL (SEQ ID NO: 251)]	50 to 75	–
TVSDVLNSV [TVSDVLNSV (SEQ ID NO: 246)]	50 to 75	–

Source: patent US20170165339A1 (IMMATICS BIOTECHNOLOGIES, published 2017)
